The values that follow come from patent US20200223932A1.

The target of experiment [1] is recombinant human CD40L (BioLegend Cat. #591706) (human) (UniProt P29965). Description: ELISA on coated rh CD40L; IC50 clone/IC50 5c8 x100. On the technique in general: ELISA stands for enzyme-linked immunosorbent assay.
The target in experiment [2] is recombinant human FcγRI (human) (UniProt P12314). Briefly: ELISA, antibody coated on the plate, soluble FcγRI titrated (the axis is its concentration), anti-CD64 and HRP anti-mouse IgG, A450.
Chain of UniProt P12314 (P12314 16-288 limits assumed): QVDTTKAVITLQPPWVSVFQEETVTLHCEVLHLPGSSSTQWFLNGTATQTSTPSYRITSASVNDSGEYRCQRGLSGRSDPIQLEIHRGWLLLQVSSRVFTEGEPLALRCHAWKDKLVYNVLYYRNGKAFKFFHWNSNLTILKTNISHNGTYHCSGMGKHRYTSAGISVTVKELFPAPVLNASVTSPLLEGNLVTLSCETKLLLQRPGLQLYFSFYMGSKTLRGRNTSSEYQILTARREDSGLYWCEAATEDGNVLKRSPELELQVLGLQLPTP

Chain of UniProt P29965 (P29965 113-261 limits assumed): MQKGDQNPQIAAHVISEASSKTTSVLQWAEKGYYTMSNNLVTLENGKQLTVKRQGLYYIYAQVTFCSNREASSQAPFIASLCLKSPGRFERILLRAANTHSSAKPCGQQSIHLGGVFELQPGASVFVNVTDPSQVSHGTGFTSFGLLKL

As to anti-CD40L antibody AT-1501, the Rel. Pot. in experiment [1] is 95%.
For orientation: EC50 (read off the curve) means the concentration giving half of the maximal effect. Regarding anti-CD40L antibody 5c8, the EC50 (read off the curve) in experiment [2] stood at 0.2 µg/mL.
